The values that follow come from patent publication US20150093799A1.

Assay [1] addresses anti-Jo-1 antibodies (commercially available, from human patient samples) (human). The assay is described as follows: competitive ELISA: soluble competitor pre-incubated with anti-Jo-1 serum; competitor is plate-bound full-length human wild-type HisRS; A450.
Assay [2] shares this target. Nature of the assay: immunodepletion: HRS polypeptide on NHS-agarose (Affi-gel 10), anti-Jo-1 antibodies (RDL) at 1:1,000, titre by ELISA before and after.
The target is the same in assay [3]. Nature of the assay: competitive ELISA: soluble HisRS pre-incubated with anti-Jo-1 human serum at 1:2,000; competitor is plate-bound full-length wild-type HisRS; A450.
Assay [4] shares this target. The assay is described as follows: competitive ELISA: soluble competitor pre-incubated with anti-Jo-1 serum; competitor is plate-bound full-length wild-type HisRS; A450.
Assay [5] shares this target. Nature of the assay: competitive ELISA, full-length histidyl-tRNA synthetase on the plate.

B1: Full-length histidyl-tRNA synthetase (HRS), His-tagged (enzyme)
chain: MAERAALEELVKLQGERVRGLKQQKASAELIEEEVAKLLKLKAQLGPDESKQKFVLKTPKGTRDYSPRQMAVREKVFDVIIRCFKRHGAEVIDTPVFELKETLMGKYGEDSKLIYDLKDQGGELLSLRYDLTVPFARYLAMNKLTNIKRYHIAKVYRRDNPAMTRGRYREFYQCDFDIAGNFDPMIPDAECLKIMCEILSSLQIGDFLVKVNDRRILDGMFAICGVSDSKFRTICSSVDKLDKVSWEEVKNEMVGEKGLAPEVADRIGDYVQQHGGVSLVEQLLQDPKLSQNKQALEGLGDLKLLFEYLTLFGIDDKISFDLSLARGLDYYTGVIYEAVLLQTPAQAGEEPLGVGSVAAGGRYDGLVGMFDPKGRKVPCVGLSIGVERIFSIVEQRLEALEEKIRTTETQVLVASAQKKLLEERLKLVSELWDAGIKAELLYKKNPKLLNQLQYCEEAGIPLVAIIGEQELKDGVIKLRSVTSREEVDVRREDLVEEIKRRTGQPLCICAAALEHHHHHH
In the case of B1, the IC50 (read off the curve) in assay [1] was found to be 0.3 nM; in assay [3], 0.8 nM; in assay [4] it was 0.03 nM. In assay [2], this molecule registered a percent of detectable Jo-1 antibodies removed of 93%.

B2: HRS(1-506) (enzyme)
chain: MAERAALEELVKLQGERVRGLKQQKASAELIEEEVAKLLKLKAQLGPDESKQKFVLKTPKGTRDYSPRQMAVREKVFDVIIRCFKRHGAEVIDTPVFELKETLMGKYGEDSKLIYDLKDQGGELLSLRYDLTVPFARYLAMNKLTNIKRYHIAKVYRRDNPAMTRGRYREFYQCDFDIAGNFDPMIPDAECLKIMCEILSSLQIGDFLVKVNDRRILDGMFAICGVSDSKFRTICSSVDKLDKVSWEEVKNEMVGEKGLAPEVADRIGDYVQQHGGVSLVEQLLQDPKLSQNKQALEGLGDLKLLFEYLTLFGIDDKISFDLSLARGLDYYTGVIYEAVLLQTPAQAGEEPLGVGSVAAGGRYDGLVGMFDPKGRKVPCVGLSIGVERIFSIVEQRLEALEEKIRTTETQVLVASAQKKLLEERLKLVSELWDAGIKAELLYKKNPKLLNQLQYCEEAGIPLVAIIGEQELKDGVIKLRSVTSREEVDVRREDLVEEIKRRTGQPL
In the case of B2, the IC50 (read off the curve) in assay [1] was determined as 0.3 nM. The percent of detectable Jo-1 antibodies removed in assay [2] is < 99%.

B3: Resokine (HRS(1-60)), His-tagged (peptide)
chain: MAERAALEELVKLQGERVRGLKQQKASAELIEEEVAKLLKLKAQLGPDESKQKFVLKTPKHHHHHH
For the molecule B3, the concentration above which competition is seen in assay [5] is > 100 nM. The molecule also showed a percent of detectable Jo-1 antibodies removed in assay [2] of 20%.
